The data set is described as follows: yeast display, Sf9 membrane polyspecificity reagent, FACS + sequencing; frameworks hold sequencing errors. In a few lines:
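Nanobodies came from a synthetic yeast display library in Saccharomyces cerevisiae BJ5465, induced with galactose for 36–48 hours and stained for 1 hour at 4 °C with 10% biotinylated, detergent-solubilized Sf9 membrane reagent. Cells were enriched on streptavidin microbeads and then FACS-sorted, with low and high (top ~1%) gates set on anti-HA fluorescence for expression and streptavidin fluorescence for reagent binding. Each polyreactivity label reflects the gate a clone came from. Genes were amplified by colony PCR, sequenced by MiSeq 2 × 250 and filtered by CDR length.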
“QVQLVESGGGLVQAGGSLRLSCAASGRTFKWYAMGWYRQAPGKERELVAGISRGAGRTYYADSVKWRFTISRDNAKNTFYLEMNSLKPEDTAVYYFAASPVRDGKVIDGRDYWGQGTQVTVSS”: the “polyreactivity (PSR sort gate)” value is listed as “high polyreactivity”. With “QVQLVESGGGLVQAGGSLRLSCAASGRTFKYNAMGWYRQAPGKERELVATITRSGGSTYADSVKGRFTISRDNAKNTVYLQMNSLKPEDTAVYYCNLFHVTKDYKTYPQSRYDYWGQGTQVTVSS”, the “polyreactivity (PSR sort gate)” value is recorded as “high polyreactivity”. On to “QVQLVESGGGLVQAGGSLRLSCAASGRTFKYYAMGWYRQAPGKERELVAGISSTGRTNYADSVKGRFTISRDNAKNTVYLQMNSLKPEDTAVYYCNAERKSFGKFDYWGQGTQVTVSS”, for which the “polyreactivity (PSR sort gate)” value is given as “high polyreactivity”. “QVQLVESGGGLVQAGGSLRLSCAASGRTFKYYAMGWYRQAPGKERELVATINYSGGGTYYADSVKRRFTSSRDNAKNTVYLQMNSLKPEDTAVYYCAATRYSFGPRRVDYWGQGTQVTVSS”: the “polyreactivity (PSR sort gate)” value is on record as “high polyreactivity”. “QVQLVESGGGLVQAGGSLRLSCAASGRTFKYYTMGWYRQAPGKERELVAAISGSGSRTYYADSVKGRFTISRDNAKNTVYLQMNSLKPEDTAVYYCAARRRISSGYSGPPWIYGYWGQGTQVTVSS”: the “polyreactivity (PSR sort gate)” value is given as “high polyreactivity”. Regarding “QVQLVESGGGLVQAGGSLRLSCAASGRTFKYYTMGWYRQAPGKERELVAGINGGGGSTYYADSVKGRFTISRDNAKNTVYLQMNSMKPEDTAVYYCAVDPFAYFSYWTYDYWGQGTQVTVSS”, the “polyreactivity (PSR sort gate)” value was “high polyreactivity”. For “QVQLVESGGGLVQAGGSLRLSCAASGRTFKYYTMGWYRQAPGKERELVATISSSATSTYYADSVKGRFTISRDNAKNTVYLQMNSLKPEDTAVYYCAVERDYGWPIYIRWHFDYWGQGTQVTVSS”, the “polyreactivity (PSR sort gate)” value is on record as “low polyreactivity”.

Take “QVQLVESGGGLVQAGGSLRLSCAASGRTFKYYTMGWYRQAPGKERELVAVIRGTGSTYYADSVKGRFTISRDNAKNTVYLQMNSLKPEDTAVYYCAVQVRRRYNYWGQGTQVTVSS”: the “polyreactivity (PSR sort gate)” value is on record as “high polyreactivity”. In the case of “QVQLVESGGGLVQAGGSLRLSCAASGRTFLANAMGWYRQAPGKERELVAAITWSGGRTNYADSVKGRFTISRDNAKNTVYLQMNSLKPEDTAVYYCAADIFYEQVVGGTDVGYHDFDYWGQGTQVTVSS”, the “polyreactivity (PSR sort gate)” value was “low polyreactivity”.

Take “QVQLVESGGGLVQAGGSLRLSCAASGRTFLIYDMGWYRQAPGKVRELVAAIRDRGATTYYADSVKGRFTISRDNAKNTVYLHMNSLKPEDTSVYYCSARNGAYPALKEGDYWGQGTQVTVSS”: the “polyreactivity (PSR sort gate)” value was “high polyreactivity”. Regarding “QVQLVESGGGLVQAGGSLRLSCAASGRTFLLYAMGWYRQAPGKERELVAAISIGGGSTRYADSVKGRFTISRDNAKNTVYLQMNSLKPEDTAVYYCAALGRRGGDYWGQGTEVTVSS”, the “polyreactivity (PSR sort gate)” value is on record as “high polyreactivity”. The entry for “QVQLVESGGGLVQAGGSLRLSCAASGRTFLLYAMGWYRQAPGKERELVAAISSGGSTYYADSVKGRFTISRDNAKNTVYLQMNSLKPEDTAVYYCNAVYQHLASEYDYWGQGTQVTVSS” is “low polyreactivity”.

With “QVQLVESGGGLVQAGGSLRLSCAASGRTFLPYAMGWYRQAPGKERELVAAITSGGSTSYADSVKGRFTISRDNAKNTVYLQMNSLKPEDSAVYYCAKGYYRFRRFYYGGYYWGQGTQVTVSS”, the “polyreactivity (PSR sort gate)” value is recorded as “low polyreactivity”. For the sequence “QVQLVESGGGLVQAGGSLRLSCAASGRTFLRYAMGWYRQAPGKERELVAAISSRGGTTHYADSVKGRFTISRDNAKNTVYLLMNSLKPEDTAVYYCAAKSFLPYLKFGYWGQGTQVTVSS”, the “polyreactivity (PSR sort gate)” value was “high polyreactivity”. The entry for “QVQLVESGGGLVQAGGSLRLSCAASGRTFLRYAMGWYRQAPGKERELVAAISVSGGNTYYADSVKGRFTISRDNAKNTVYLQMKSLKPEDTAVYYCNKARLAAVFSYPYGYWGQGTQVTVSS” is “low polyreactivity”; for “QVQLVESGGGLVQAGGSLRLSCAASGRTFLRYTMGWYRQAPGKERELVASITRGGSTYYADSVKGRFTISRDNAKNTVYLQMNSLKPEDTAVYYCAVDVYGSHYYTGSLGKPDGYWGQGTQVTVSS” it is “high polyreactivity”; for “QVQLVESGGGLVQAGGSLRLSCAASGRTFLSYAMGWYRPAPGKERELVAAIRWRTGSRTYYADSVKGRFTISRDNAKNKVYLQLNSLKPEDTAVYLCANTYWYPYGYWGQGTQVTLSS” it is “low polyreactivity”. Turning to “QVQLVESGGGLVQAGGSLRLSCAASGRTFLSYTMGWYRQAPGKERELVAAITTSGGSTNYADSVKGRFTISRDNAMNNVYLQMNSLKPEDTAVYYCADEWSVYFNDPRSDYWGQGTQVTVSS”, the “polyreactivity (PSR sort gate)” value was “high polyreactivity”. Regarding “QVQLVESGGGLVQAGGSLRLSCAASGRTFLVNAMGWSRQAPGKERELVAAISQRGGSTDYADSVKGRFTISRDNAKNTVYLQMNSLKPEDTAVYYCAVRWGYLYDYWGQGTQVTVSS”, the “polyreactivity (PSR sort gate)” value is given as “low polyreactivity”.

As to “QVQLVESGGGLVQAGGSLRLSCAASGRTFLVYAMGWYRQAPGKERELVATIRASTGSTYADSVKGRFTISRDNAKNTVYLQMNSLKPEDTAVYYCAASIRTSPYNYDYWGQGTQVTVSS”, the “polyreactivity (PSR sort gate)” value is on record as “high polyreactivity”.

Turning to “QVQLVESGGGLVQAGGSLRLSCAASGRTFLWNDMGWYRQAPGKERELVAAITGSDGTYADSVKGRFTISRDNAKNTVYLQMNSLKPEDTAVYYCAAETYGYFPWKYDYWGQGTQVTVSS”, the “polyreactivity (PSR sort gate)” value is given as “low polyreactivity”.

Consider “QVQLVESGGGLVQAGGSLRLSCAASGRTFLWYAMGWYRQAPGKERELVAAIRWRGTSTYYADSVKGRFTISRDNAKNTVYLQMNSLKPEDTAVYYCAAKVRSLYWFDYWGQGTQVTVSS”, for which the “polyreactivity (PSR sort gate)” value is recorded as “high polyreactivity”.

For “QVQLVESGGGLVQAGGSLRLSCAASGRTFLWYAMGWYRQAPGKERELVAAITTAGSTYYADSVKGRFTISRDNAKNTVYLQMNSLKPEDTAVYYCNRLTYAYPPPVLGVGHDSWGQGTQVTVSS”, the “polyreactivity (PSR sort gate)” value is on record as “low polyreactivity”.

“QVQLVESGGGLVQAGGSLRLSCAASGRTFLYNAMGWYIQAPGKERELVAAISWNGGRTYYADSVKGRFTISRDNAKNTVYLQMNSLKPEDTAVYYCAKVDQLYNSRYDYWGQGTQVTVSS”: the “polyreactivity (PSR sort gate)” value is “high polyreactivity”. The entry for “QVQLVESGGGLVQAGGSLRLSCAASGRTFLYNAMGWYRQAHGKERELVAAIDQSGGSTYYADSVKGRFTISRDNAKNTVYLQMNSLKPEDTAVYYCAAYWEGSWYYKKYYYWGQGTQVTVSS” is “high polyreactivity”; for “QVQLVESGGGLVQAGGSLRLSCAASGRTFLYNAMGWYRQAPGKERELVAAISFDDGSTYYADSVKGRFTISRDNAKNTVYLQMNSLKPEDTAVYYCAAEYLYVGDSQAYNQYEYWGQGTQVTVSS” it is “low polyreactivity”; for “QVQLVESGGGLVQAGGSLRLSCAASGRTFLYNAMGWYRQAPGKERELVAAISWSGGSTYYADSVKGRFTISRDNAKNTVYLQMIILKPEDTAVYYCAATGRRSGFYYWGQGTQVTVSS” it is “high polyreactivity”.

Take “QVQLVESGGGLVQAGGSLRLSCAASGRTFLYNAMGWYRQAPGKERELVAGITQSGSSTYYADSVKGRFTISRDNAKNTVYLQMNSLKPEDTAVYYCAKVLYRRGYKFDYWGQGTQVTVSS”: the “polyreactivity (PSR sort gate)” value is “low polyreactivity”. Consider “QVQLVESGGGLVQAGGSLRLSCAASGRTFLYYAMGWDRPAPGKERELVAAITRGGGSTYYADSVKGRFTISRDNAKNTVYLPMNSLKPEDTAVYYCAVEYRVDYYVEYDYWGQGTQVTVSS”, for which the “polyreactivity (PSR sort gate)” value was “high polyreactivity”. The entry for “QVQLVESGGGLVQAGGSLRLSCAASGRTFLYYAMGWYRQAPGKERELVAGITSGGSTNYADSVKGRFTISRDNAKNTVYLQMNSLKPEATAVYYCAVDQGYSRTADVNYDYWGQGTQVTVSS” is “low polyreactivity”.

(Values after the nanobody polyreactivity screen of Harvey et al. (2022).)
